# From US20110263824A1
# Biological target: human serum protein
# Test: human serum (1:800) adsorbed to TM2 variant-immobilized magnetic beads, HRP-labeled anti-human IgG detection
substance,measurement,value
TM2 D40NR104E,Non-specific binding to serum protein (A450),0.56 A450
